Measured values as given in US20050037448A1.

Assays:
[1] = target: des-31,32-proinsulin (UniProt P01308); experiment: competitive RIA, PEP001-coated tubes, 125I-Tyr-C-peptide; serum E1 overloaded with 0.67 pmol/ml des-31,32-proinsulin; no AC1D4
[2] = target: human proinsulin (human) (UniProt P01308); experiment: competitive RIA, PEP001-coated tubes, 125I-Tyr-C-peptide; serum E1 overloaded with 0.67 pmol/ml proinsulin; no AC1D4
[3] = target: des-64,65-proinsulin (UniProt P01308); experiment: competitive RIA, PEP001-coated tubes, 125I-Tyr-C-peptide; serum E2 overloaded with 0.16 pmol/ml des-64,65-proinsulin; no AC1D4
[4] = target: des-64,65-proinsulin (UniProt P01308); experiment: sandwich immunoenzymatic C-peptide assay: PEP001 beads, goat polyclonal conjugate; competitors AC1D4 + BC9B6 in equal quantities, 20 µg/ml
[5] = target: human proinsulin (human) (UniProt P01308); experiment: as above
[6] = target: des-31,32-proinsulin (UniProt P01308); experiment: as above
[7] = target: des-31,32-proinsulin (UniProt P01308); experiment: competitive RIA, PEP001-coated tubes, 125I-Tyr-C-peptide; serum E2 overloaded with 0.16 pmol/ml des-31,32-proinsulin; no AC1D4
[8] = target: human proinsulin (human) (UniProt P01308); experiment: competitive RIA, PEP001-coated tubes, 125I-Tyr-C-peptide; serum E2 overloaded with 0.16 pmol/ml proinsulin; no AC1D4
[9] = target: des-64,65-proinsulin (UniProt P01308); experiment: competitive RIA, PEP001-coated tubes, 125I-Tyr-C-peptide; serum E2 overloaded with 0.67 pmol/ml des-64,65-proinsulin; competitor AC1D4 20 µg/ml
[10] = target: des-64,65-proinsulin (UniProt P01308); experiment: sandwich immunoenzymatic C-peptide assay: PEP001 beads, goat polyclonal conjugate; no AC1D4 or BC9B6
[11] = target: human proinsulin (human) (UniProt P01308); experiment: as above
[12] = target: des-31,32-proinsulin (UniProt P01308); experiment: as above
[13] = target: des-31,32-proinsulin (UniProt P01308); experiment: competitive RIA, PEP001-coated tubes, 125I-Tyr-C-peptide; serum E1 overloaded with 0.16 pmol/ml des-31,32-proinsulin; no AC1D4
[14] = target: des-64,65-proinsulin (UniProt P01308); experiment: sandwich immunoenzymatic C-peptide assay: PEP001 beads, goat polyclonal anti-C-peptide-alkaline phosphatase; no AC1D4
[15] = target: human proinsulin (human) (UniProt P01308); experiment: as above
[16] = target: des-31,32-proinsulin (UniProt P01308); experiment: as above
[17] = target: des-64,65-proinsulin (UniProt P01308); experiment: competitive RIA, PEP001-coated tubes, 125I-Tyr-C-peptide; serum E2 overloaded with 3.33 pmol/ml des-64,65-proinsulin; no AC1D4
[18] = target: des-64,65-proinsulin (UniProt P01308); experiment: competitive RIA, PEP001-coated tubes, 125I-Tyr-C-peptide; serum E1 overloaded with 3.33 pmol/ml des-64,65-proinsulin; no AC1D4
[19] = target: des-64,65-proinsulin (UniProt P01308); experiment: sandwich immunoenzymatic C-peptide assay: PEP001 beads, goat polyclonal anti-C-peptide-alkaline phosphatase; no BC9B6
[20] = target: human proinsulin (human) (UniProt P01308); experiment: as above
[21] = target: des-31,32-proinsulin (UniProt P01308); experiment: as above
[22] = target: des-31,32-proinsulin (UniProt P01308); experiment: competitive RIA, PEP001-coated tubes, 125I-Tyr-C-peptide; serum E2 overloaded with 3.33 pmol/ml des-31,32-proinsulin; no AC1D4
[23] = target: des-31,32-proinsulin (UniProt P01308); experiment: competitive RIA, PEP001-coated tubes, 125I-Tyr-C-peptide; serum E1 overloaded with 3.33 pmol/ml des-31,32-proinsulin; no AC1D4
[24] = target: human proinsulin (human) (UniProt P01308); experiment: competitive RIA, PEP001-coated tubes, 125I-Tyr-C-peptide; serum E2 overloaded with 3.33 pmol/ml proinsulin; competitor AC1D4 20 µg/ml
[25] = target: human proinsulin (human) (UniProt P01308); experiment: competitive RIA, PEP001-coated tubes, 125I-Tyr-C-peptide; serum E2 overloaded with 3.33 pmol/ml proinsulin; no AC1D4
[26] = target: des-64,65-proinsulin (UniProt P01308); experiment: sandwich immunoenzymatic C-peptide assay: PEP001 beads, goat polyclonal conjugate; competitors AC1D4 + BC9B6 in equal quantities, 40 µg/ml
[27] = target: human proinsulin (human) (UniProt P01308); experiment: as above
[28] = target: des-31,32-proinsulin (UniProt P01308); experiment: as above
[29] = target: des-64,65-proinsulin (UniProt P01308); experiment: competitive RIA, PEP001-coated tubes, 125I-Tyr-C-peptide; serum E2 overloaded with 3.33 pmol/ml des-64,65-proinsulin; competitor AC1D4 20 µg/ml

Which Increase after overload (%) [1] does the source give for “PEP001 anti-C-peptide monoclonal antibody” here?
Its Increase after overload (%) is 38%.

And the Increase after overload (%) [2]?
Its Increase after overload (%) is 56%.

And the Increase after overload (%) [3]?
Its Increase after overload (%) is 0%.

What about the percentage of cross reaction [4] of the same substance?
Its percentage of cross reaction is 10%.

What about the percentage of cross reaction [5] of the same substance?
Its percentage of cross reaction is 2%.

And the percentage of cross reaction [6]?
The percentage of cross reaction was 19%.

And the Increase after overload (%) [7]?
Its Increase after overload (%) is 10%.

And the Increase after overload (%) [8]?
The Increase after overload (%) was 1%.

What about the Increase after overload (%) [9] of the same substance?
The Increase after overload (%) was 18%.

And the percentage of cross reaction [10]?
Its percentage of cross reaction is 94%.

And the percentage of cross reaction [11]?
Its percentage of cross reaction is 92%.

And the percentage of cross reaction [12]?
Its percentage of cross reaction is 108%.

And the Increase after overload (%) [13]?
The Increase after overload (%) was 8%.

And the percentage of cross reaction [14]?
Its percentage of cross reaction is 94%.

What about the percentage of cross reaction [15] of the same substance?
Its percentage of cross reaction is 92%.

And the percentage of cross reaction [16]?
The percentage of cross reaction was 108%.

What about the Increase after overload (%) [17] of the same substance?
Its Increase after overload (%) is 55%.

And the Increase after overload (%) [18]?
The Increase after overload (%) was 267%.

And the percentage of cross reaction [19]?
Its percentage of cross reaction is 94%.

What about the percentage of cross reaction [20] of the same substance?
The percentage of cross reaction was 92%.

And the percentage of cross reaction [21]?
Its percentage of cross reaction is 108%.

And the Increase after overload (%) [22]?
Its Increase after overload (%) is 59%.

What about the Increase after overload (%) [23] of the same substance?
The Increase after overload (%) was 213%.

What about the Increase after overload (%) [24] of the same substance?
The Increase after overload (%) was 0%.

What about the Increase after overload (%) [25] of the same substance?
The Increase after overload (%) was 54%.

And the percentage of cross reaction [26]?
Its percentage of cross reaction is 7%.

And the percentage of cross reaction [27]?
Its percentage of cross reaction is 18%.

And the percentage of cross reaction [28]?
The percentage of cross reaction was 13%.

And the Increase after overload (%) [29]?
Its Increase after overload (%) is 69%.
